Test results taken from PMC11809661 (2024).

Assays:
[1] = molecular target: T1, Protein S (Mus musculus, UniProt Q08761); test: ELISA plate-binding
T1 chain: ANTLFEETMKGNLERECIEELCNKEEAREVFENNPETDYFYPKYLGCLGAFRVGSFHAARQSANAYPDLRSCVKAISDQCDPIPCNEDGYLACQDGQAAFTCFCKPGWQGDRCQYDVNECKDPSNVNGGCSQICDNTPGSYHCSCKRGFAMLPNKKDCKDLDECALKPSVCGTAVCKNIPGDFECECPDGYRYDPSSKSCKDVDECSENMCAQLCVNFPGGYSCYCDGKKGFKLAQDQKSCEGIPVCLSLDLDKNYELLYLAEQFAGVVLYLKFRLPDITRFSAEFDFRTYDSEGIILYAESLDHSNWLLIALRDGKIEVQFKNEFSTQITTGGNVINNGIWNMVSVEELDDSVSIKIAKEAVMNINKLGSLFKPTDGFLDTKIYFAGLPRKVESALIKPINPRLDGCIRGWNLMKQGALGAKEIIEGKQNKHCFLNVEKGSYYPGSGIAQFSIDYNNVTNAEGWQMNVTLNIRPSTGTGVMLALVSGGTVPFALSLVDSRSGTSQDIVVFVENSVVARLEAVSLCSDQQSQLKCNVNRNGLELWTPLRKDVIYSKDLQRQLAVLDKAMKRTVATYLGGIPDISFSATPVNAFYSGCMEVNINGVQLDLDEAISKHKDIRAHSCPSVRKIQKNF

[2] = molecular target: T2, Protein S (Homo sapiens, UniProt P07225); test: ELISA plate-binding
T2 chain: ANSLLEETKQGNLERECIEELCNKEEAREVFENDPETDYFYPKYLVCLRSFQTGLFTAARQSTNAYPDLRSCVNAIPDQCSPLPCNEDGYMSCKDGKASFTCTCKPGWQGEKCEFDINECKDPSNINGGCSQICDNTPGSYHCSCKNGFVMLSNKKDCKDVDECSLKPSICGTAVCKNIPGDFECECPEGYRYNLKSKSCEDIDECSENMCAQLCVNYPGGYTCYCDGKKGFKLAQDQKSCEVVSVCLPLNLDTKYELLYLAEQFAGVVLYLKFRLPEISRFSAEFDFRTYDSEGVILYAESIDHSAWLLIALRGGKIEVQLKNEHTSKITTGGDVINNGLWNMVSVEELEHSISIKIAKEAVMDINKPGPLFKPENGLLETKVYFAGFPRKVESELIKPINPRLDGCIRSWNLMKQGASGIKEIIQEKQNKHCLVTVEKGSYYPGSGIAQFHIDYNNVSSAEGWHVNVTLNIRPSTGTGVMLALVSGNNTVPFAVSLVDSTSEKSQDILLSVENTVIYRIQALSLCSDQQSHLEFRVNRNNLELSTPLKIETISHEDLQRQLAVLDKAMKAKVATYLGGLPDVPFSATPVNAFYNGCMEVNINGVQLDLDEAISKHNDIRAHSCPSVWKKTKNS

Kd [1]: 210 pM
Kd [2]: 860 pM
B1: C4BPβ 1-119 (protein)
chain: MFFWCACCLMVAWRVSASDAEHCPELPPVDNSIFVAKEVEGQILGTYVCIKGYHLVGKKTLFCNASKEWDNTTTECRLGHCPDPVLVNGEFSSSGPVNVSDKITFMCNDHYILKGSNRS
